Measurements: patent US20260167699A1 (Chugai, published 2026)

Target: T1, FcγRIIIa (human, UniProt P08637 17-208)
T1 construct: extracellular domain; also called 3a; FcγRIIIa extracellular domain
Experiment: SPR (Biacore);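 further: antibody variants captured on an SPR sensor chip, with FcγRIIIa passed over as analyte in HBS-EP+ buffer at 25 °C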

T1 sequence (P08637 other isoform, or with tags, fused parts or gaps): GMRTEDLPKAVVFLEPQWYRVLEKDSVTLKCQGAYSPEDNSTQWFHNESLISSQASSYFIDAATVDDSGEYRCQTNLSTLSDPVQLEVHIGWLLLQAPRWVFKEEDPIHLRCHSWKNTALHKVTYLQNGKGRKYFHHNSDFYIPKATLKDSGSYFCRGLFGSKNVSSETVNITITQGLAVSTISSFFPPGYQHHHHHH

Binder	He/Con 3a
GpH7-A5/GpH7-B3 variant Y296_12R/GpL16-k0 (antibody, human IgG1, kappa, copies: 1 + 1 + 2) heavy 1: not shown heavy 2: not shown light: DIVMTQSPLSLPVTPGEPASISCQASESLVHSNRNTYLHWYLQKPGQSPQLLIYKVSNRFSGVPDRFSGSGSGTDFTLKISRVEAEDVGVYYCSQNTHVPPTFGQGTKVEIERTVAAPSVFIFPPSDEQLKSGTASVVCLLNNFYPREAKVQWKVDNALQSGNSQESVTEQDSKDSTYSLSSTLTLSKADYEKHKVYACEVTHQGLSSPVTKSFNRGEC	66.5 % of GpH7-A5/GpH7-B3/GpL16-k0
GpH7-A5/GpH7-B3 variant Y300_02A/GpL16-k0 (antibody, human IgG1, kappa, copies: 1 + 1 + 2) heavy 1: not shown heavy 2: not shown light: DIVMTQSPLSLPVTPGEPASISCQASESLVHSNRNTYLHWYLQKPGQSPQLLIYKVSNRFSGVPDRFSGSGSGTDFTLKISRVEAEDVGVYYCSQNTHVPPTFGQGTKVEIERTVAAPSVFIFPPSDEQLKSGTASVVCLLNNFYPREAKVQWKVDNALQSGNSQESVTEQDSKDSTYSLSSTLTLSKADYEKHKVYACEVTHQGLSSPVTKSFNRGEC	88.1 % of GpH7-A5/GpH7-B3/GpL16-k0
GpH7-A5/GpH7-B3 variant Y300_06M/GpL16-k0 (antibody, human IgG1, kappa, copies: 1 + 1 + 2) heavy 1: not shown heavy 2: not shown light: DIVMTQSPLSLPVTPGEPASISCQASESLVHSNRNTYLHWYLQKPGQSPQLLIYKVSNRFSGVPDRFSGSGSGTDFTLKISRVEAEDVGVYYCSQNTHVPPTFGQGTKVEIERTVAAPSVFIFPPSDEQLKSGTASVVCLLNNFYPREAKVQWKVDNALQSGNSQESVTEQDSKDSTYSLSSTLTLSKADYEKHKVYACEVTHQGLSSPVTKSFNRGEC	106 % of GpH7-A5/GpH7-B3/GpL16-k0
GpH7-A5/GpH7-B3 variant Y300_10E/GpL16-k0 (antibody, human IgG1, kappa, copies: 1 + 1 + 2) heavy 1: not shown heavy 2: not shown light: DIVMTQSPLSLPVTPGEPASISCQASESLVHSNRNTYLHWYLQKPGQSPQLLIYKVSNRFSGVPDRFSGSGSGTDFTLKISRVEAEDVGVYYCSQNTHVPPTFGQGTKVEIERTVAAPSVFIFPPSDEQLKSGTASVVCLLNNFYPREAKVQWKVDNALQSGNSQESVTEQDSKDSTYSLSSTLTLSKADYEKHKVYACEVTHQGLSSPVTKSFNRGEC	113 % of GpH7-A5/GpH7-B3/GpL16-k0
GpH7-A5/GpH7-B3 variant Y300_09D/GpL16-k0 (antibody, human IgG1, kappa, copies: 1 + 1 + 2) heavy 1: not shown heavy 2: not shown light: DIVMTQSPLSLPVTPGEPASISCQASESLVHSNRNTYLHWYLQKPGQSPQLLIYKVSNRFSGVPDRFSGSGSGTDFTLKISRVEAEDVGVYYCSQNTHVPPTFGQGTKVEIERTVAAPSVFIFPPSDEQLKSGTASVVCLLNNFYPREAKVQWKVDNALQSGNSQESVTEQDSKDSTYSLSSTLTLSKADYEKHKVYACEVTHQGLSSPVTKSFNRGEC	104 % of GpH7-A5/GpH7-B3/GpL16-k0
GpH7-A5/GpH7-B3 variant Y300_11K/GpL16-k0 (antibody, human IgG1, kappa, copies: 1 + 1 + 2) heavy 1: not shown heavy 2: not shown light: DIVMTQSPLSLPVTPGEPASISCQASESLVHSNRNTYLHWYLQKPGQSPQLLIYKVSNRFSGVPDRFSGSGSGTDFTLKISRVEAEDVGVYYCSQNTHVPPTFGQGTKVEIERTVAAPSVFIFPPSDEQLKSGTASVVCLLNNFYPREAKVQWKVDNALQSGNSQESVTEQDSKDSTYSLSSTLTLSKADYEKHKVYACEVTHQGLSSPVTKSFNRGEC	63.7 % of GpH7-A5/GpH7-B3/GpL16-k0
GpH7-A5/GpH7-B3 variant Y296_16H/GpL16-k0 (antibody, human IgG1, kappa, copies: 1 + 1 + 2) heavy 1: not shown heavy 2: not shown light: DIVMTQSPLSLPVTPGEPASISCQASESLVHSNRNTYLHWYLQKPGQSPQLLIYKVSNRFSGVPDRFSGSGSGTDFTLKISRVEAEDVGVYYCSQNTHVPPTFGQGTKVEIERTVAAPSVFIFPPSDEQLKSGTASVVCLLNNFYPREAKVQWKVDNALQSGNSQESVTEQDSKDSTYSLSSTLTLSKADYEKHKVYACEVTHQGLSSPVTKSFNRGEC	69.1 % of GpH7-A5/GpH7-B3/GpL16-k0
GpH7-A5/GpH7-B3 variant Y296_13S/GpL16-k0 (antibody, human IgG1, kappa, copies: 1 + 1 + 2) heavy 1: not shown heavy 2: not shown light: DIVMTQSPLSLPVTPGEPASISCQASESLVHSNRNTYLHWYLQKPGQSPQLLIYKVSNRFSGVPDRFSGSGSGTDFTLKISRVEAEDVGVYYCSQNTHVPPTFGQGTKVEIERTVAAPSVFIFPPSDEQLKSGTASVVCLLNNFYPREAKVQWKVDNALQSGNSQESVTEQDSKDSTYSLSSTLTLSKADYEKHKVYACEVTHQGLSSPVTKSFNRGEC	58.1 % of GpH7-A5/GpH7-B3/GpL16-k0
GpH7-A5/GpH7-B3 variant Y296_20W/GpL16-k0 (antibody, human IgG1, kappa, copies: 1 + 1 + 2) heavy 1: not shown heavy 2: not shown light: DIVMTQSPLSLPVTPGEPASISCQASESLVHSNRNTYLHWYLQKPGQSPQLLIYKVSNRFSGVPDRFSGSGSGTDFTLKISRVEAEDVGVYYCSQNTHVPPTFGQGTKVEIERTVAAPSVFIFPPSDEQLKSGTASVVCLLNNFYPREAKVQWKVDNALQSGNSQESVTEQDSKDSTYSLSSTLTLSKADYEKHKVYACEVTHQGLSSPVTKSFNRGEC	127 % of GpH7-A5/GpH7-B3/GpL16-k0
GpH7-A5/GpH7-B3 variant Y296_19Q/GpL16-k0 (antibody, human IgG1, kappa, copies: 1 + 1 + 2) heavy 1: not shown heavy 2: not shown light: DIVMTQSPLSLPVTPGEPASISCQASESLVHSNRNTYLHWYLQKPGQSPQLLIYKVSNRFSGVPDRFSGSGSGTDFTLKISRVEAEDVGVYYCSQNTHVPPTFGQGTKVEIERTVAAPSVFIFPPSDEQLKSGTASVVCLLNNFYPREAKVQWKVDNALQSGNSQESVTEQDSKDSTYSLSSTLTLSKADYEKHKVYACEVTHQGLSSPVTKSFNRGEC	71.4 % of GpH7-A5/GpH7-B3/GpL16-k0
GpH7-A5/GpH7-B3 variant Y300_08L/GpL16-k0 (antibody, human IgG1, kappa, copies: 1 + 1 + 2) heavy 1: not shown heavy 2: not shown light: DIVMTQSPLSLPVTPGEPASISCQASESLVHSNRNTYLHWYLQKPGQSPQLLIYKVSNRFSGVPDRFSGSGSGTDFTLKISRVEAEDVGVYYCSQNTHVPPTFGQGTKVEIERTVAAPSVFIFPPSDEQLKSGTASVVCLLNNFYPREAKVQWKVDNALQSGNSQESVTEQDSKDSTYSLSSTLTLSKADYEKHKVYACEVTHQGLSSPVTKSFNRGEC	114 % of GpH7-A5/GpH7-B3/GpL16-k0
GpH7-A5/GpH7-B3 variant Y296_18N/GpL16-k0 (antibody, human IgG1, kappa, copies: 1 + 1 + 2) heavy 1: not shown heavy 2: not shown light: DIVMTQSPLSLPVTPGEPASISCQASESLVHSNRNTYLHWYLQKPGQSPQLLIYKVSNRFSGVPDRFSGSGSGTDFTLKISRVEAEDVGVYYCSQNTHVPPTFGQGTKVEIERTVAAPSVFIFPPSDEQLKSGTASVVCLLNNFYPREAKVQWKVDNALQSGNSQESVTEQDSKDSTYSLSSTLTLSKADYEKHKVYACEVTHQGLSSPVTKSFNRGEC	67.9 % of GpH7-A5/GpH7-B3/GpL16-k0
